The DeepSol protein solubility set

Assay: soluble on expression in E. coli; label from the status in PepcDB or PDB records

Soluble on expression in E. coli, not soluble:
MGSDKIHHHHHHMILKFVIRMGLTISEKIEEIMSSNESNTTLYNISSLEHLHAIFRAYRPHNGFGVVYRGQADCHWKLLPKAGRQEYLLPDDRDLGVFKDWLDRAIAYENVPNYFIEQLALAQHHGLATRLLDWTINPLIACYFACCSYPDKDGVIYILELPKTFATVDLSMETLKECSEVISYRPRQFSPRILNQGGIFTIHNPPDTTIDIGPGRIALDMPNLVQIILGKNLKHDILEMLSDYGIDERYIYPDLDGLSRSLNHSMMRMVRQRVERIDL
MGSDKIHHHHHHMTVDTRPAVGNPGYATSSPELERWLARHISEGFGAESLVLSMLRSGYDAAFARSAVATAMGHRRPDASATQPAPRLARREVPVLFSLQSPSIRLYQHLLSDAECDALVELARGRLARSPVINPDTGDENLIDARTSMGAMFQVGEHTLIQRIEDRIAAVLGVPVDHGEGLQILNYKPGGEYQPHFDFFNPKRPGEARQLRVGGQRTATLVIYLNTPQAGGATAFPRIGLEVAPVKGNAVYFSYLQPDGKLDERTLHAGLPVQSGEKWIATKWLREHPYRAGA
MAHHHHHHMSTKYIIEHLDELEEWCIHEYIHICETVRDENVIFTKFCENFSELTNGKYKPACYEKSIDELKNELLSGNICLLDMKAKNKLTCNDKNKIDFLLFGGILGNVPSDDRTSILRNFNFPISRNLGPIQMTTNTAVLVCYIILNDNVELENIPYVDDPEIFLKNNKESITLPFRFVSKYYYTKCEQDKNVPVLPEKFKEYLIKLGDQQFDDMSSFLENEDN
MSLELIPCGWRRYVEFRMTIVNHISPIHSVDKKGWRWFDENTKNWGFKDMIPAVILNNVNVGFLLNGEITIIAEVEVHEFIDTLNASQVEELSDDSSEDLQNKDNVTIEVNGFQVLDSQVDQVNAIFEKHPDLISNFSLKNQHIRNAYMHALLDLTKTLSKSTKELTVEDMNEADNTITDLIKAGLNLDWLRQKFDQALEKQIAYDTRIGELEKQVKKRKLAVTELEADLEKEKAAASASLMLFDEGHHHHHH
MGHHHHHHSHMARPWTEDGDWTEPGAPGGTEDRPSGGGKANRAHPIKQRPFPYEHKNTWSAQNCKNGSCVLDLSKCLFIQGKLLFAEPKDAGFPFSQDINSHLASLSMARNTSPTPDPTVREALCAPDNLNASIESQGQIKMYINEVCRETVSRCCNSFLQQAGLNLLISMTVINNMLAKSASDLKFPLISEGSGCAKVQVLKPLMGLSEKPVLAGELVGAQMLFSFMSLFIRNGNREILLETPAP
MVKKEFHLTHTFKNVSKLEDGKTLYGPEEEHFNIPWQLSFCRKEEFVGVFLRCLRPTDGIVPWEINADCILKLTSSAGKCLSHSSTYIFQSIGGFGRRKFVSWDTLVKDHLVNDSIIMEATVMITKMTGISKKKLRSFEKSEEQFSDVVLAVEDKKFFVLRKFLASHSSYFKSLLLGTFAEADKSEIKHEAINSIDFQNFLEVLYGEPVIDDDDVEGILHLAHMYDVPVAIRKCEEFLIEKSEKSMRDQLEIAKKYQLDNLKKSCLSKVNTVEEIKAALMCDLADMDPTVVAALFRKSLALL
MGHHHHHHSHAPNCTRKSTQSDLAFFRFPRDPARCQKWVENCRRADLEDKTPDQLNKHYRLCAKHFETSMICRTSPYRTVLRDNAIPTIFDLTSHLNNP
MLDLRFQRLHGKTTLTTRHHVGLLTVQRPFYPEEETCHLCLLHPPGGIVGGDELIINAIIDSDCHTLITMPGASKFYRSSGAQAHLQQNLTLCNNATLEWLPQDSIFFPGAHATLHTVFHLSSSSTLLAWDLLCLGRPVIGETFSHGTLANRLEIWVDGSPLLIERLHVANGELTCVARKPWVGTMLFYLGNETQLEDIREKLTPLENYAGATLTDGLLTVRFLSDDNLRCQ
VWPTAKQAASLIGLDPKLLVAQAALETGWGRFVTRDADGSSSNNLFNIKTGSHSEVESIQVKTTEYIADTPIKINASFRKYPSIEHSFHDYVSLIKGSERYQMALANAENPEIFVSELNKAGYATDPNYSNKILSIYHGDELNQAIQRCESFEQS
MHHFSAGRSNSIGLRQSVSDKGIEIVNLLAPKVEMLGFDLLGAEYLLVPSGAILRLYIDIPFAMQPECMVSIDDCERVSREVSAYLDLEEPISGNYTLEVSSPGLDRRLFTLEQFARHHNHLVKVGLKLQQHGSRRLQGKIVRVEQVGGFVVLLVNGVELAVDFNNIDKARIVPDWSALGLAPLEKSKHDTKKMSQGSKKPSNESAARQAVRGVIR
MSLTAELQALDAAHHLHPFSANNALGEEGTRVITRARGVWLNDSEGEEILDAMAGLWCVNIGYGRDELAEVAARQMRELPYYNTFFKTTHVPAIALAQKLAELAPGDLNHVFFAGGGSEANDTNIRMVRTYWQNKGQPEKTVIISRKNAYHGSTVASSALGGMAGMHAQSGLIPDVHHINQPNWWAEGGDMDPEEFGLARARELEEAILELGENRVAAFIAEPVQGAGGVIVAPDSYWPEIQRICDKYDILLIADEVICGFGRTGNWFGTQTMGIRPHIMTIAKGLSSGYAPIGGSIVCDEVAHVIGKDEFNHGYTYSGHPVAAAVALENLRILEEENILDHVRNVAAPYLKEKWEALTDHPLVGEAKIVGMMASIALTPNKASRAKFASEPGTIGYICRERCFANNLIMRHVGDRMIISPPLVITPAEIDEMFVRIRKSLDEAQAEIEKQGLMKSEGHHHHHH
MGSDKIHHHHHHMKAQSALSVKEANFKAMTTFIYTQGSATKQMFEHELGLSLPTITQNLRAMEADGLIVKGEMQKSTGGRKAQIYEFAAHSSVAIGVRIQTTRITAIAIDLNGKSVATRQRTLPYRNNDAYYQRMNDIINGFAQELAKQGSTVLGVAFCMQGIVSADGQSITFGKIMNNTGLKLSELSHGLNYPSLMIHDSDASAMAELWFDHNLKDAVCIYLERRPGGAVIVDGSLYQGPNQCNGSIEHMTLIPGGNTCYCGQQGCMDTYCSPETLMEDGESLPGFFSVLEQGEQEHRKRFSQWLDYVALAVTNIRSVLAGDVIISGEAAQYLDDDDMAGLRERVVEHTPFGTTDFTLRKGMALDHQDIIGAALRFVEPYVRELCDM
MNNKRTKGENVYQLVQKRLKFLFNEFDNIYVSFSGGKDSGVLLNLCIQYIREHNLDRKIGVYHMDYEAQYQMTTEYVEQTFRENQDILEIYHVCVPFKVVTCASMFQTYWRPWDESMHAHWVRPMPKNCYKKEDFPFYNEEMWDYTFQTSFASWYHKKHDAVRTCCLVGIRTQESLDRWRTIHGNNRLNSYHNLMWTRRLGYDLYNAYPIYDWTTEDIWTAYARFKWPFNQMYELYYK

Soluble on expression in E. coli, soluble:
MKATLFVREFLLNPRTIGAILPSSDYLAEKMMASVCFEQAKYIIEYGPGTGVFTDKILRYRHPDTVVMIIEHNREFFCILNEKYQDEKNVIIINGSAEHIETYVKEHNIPFVDYIISGLPFASLPLHVSNAILNKARYLLGVKGKFITFQYTQTKVRLFTQFFNQMTVERVYRNLPPAFVFSCYNEKLEHHHHHH
GSHMIASLSDSVSNAREERMALRQEQEQLQSRIQSLMQRAPVWLAAQNSLNQLSEQCGEEFTSSQDVTEYLQQLLEREREAIVERDEVGARKNAVDEEIERLSQPGGSEDQRLNALAERFGGVLLSEIYDDVSLEDAPYFSALYGPSRHAIVVPDLSQVTEHLEGLTDCPEDLYLIEGDPQSFDDSVFSVDELEKAVVVKIADRQWRYSRFPEVPLFGRAARESRIESLHAEREVLSERFATLSFDVQKTQRLHQAFSRFIGSHLAVAFESDPEAEIRQLNSRRVELERALSNHENDNQQQR
MSLAAFQIANKTVGKDAPVFIIAEAGINHDGKLDQAFALIDAAAEAGADAVKFQMFQADRMYQKDPGLYKTAAGKDVSIFSLVQSMEMPAEWILPLLDYCREKQVIFLSTVCDEGSADLLQSTSPSAFKIASYEINHLPLLKYVARLNRPMIFSTAGAEISDVHEAWRTIRAEGNNQIAIMHCVAKYPAPPEYSNLSVIPMLAAAFPEAVIGFSDHSEHPTEAPCAAVRLGAKLIEKHFTIDKNLPGADHSFALNPDELKEMVDGIRKTEAELKQGITKPVSEKLLGSSYKTTTAIEGEIRNFAYRGIFTTAPIQKGEAFSEDNIAVLRPGQKPQGLHPRFFELLTSGVRAVRDIPADTGIVWDDILLKDSPFHEEGGSHHHHHH
MQMNSEKFFKLFRVGETVLVEYSGTSRAELLLYYIVNNSKLPIVVDDILDTYYEFYTRLKVAGFDVAPLENVQVIKMGGTKDIGRVIGRLNISKYVISEQEYMEIVSQLKDYPVINPVLGLHKLILLGNTFENINVVKMVSNYVGREERIAFYFVNRNVIEKHSSPILDLLEEVVTSILEITDSGIIIKKSIKDEIAGKIVSPLLNF
MSLAIKLIAIDMDGTLLLPDHTISPAVKNAIAAARARGVNVVLTTGRPYAGVHNYLKELHMEQPGDYCITYNGALVQKAADGSTVAQTALSYDDYRFLEKLSREVGSHFHALDRTTLYTANRDISYYTVHESFVATIPLVFCEAEKMDPNTQFLKVMMIDEPAILDQAIARIPQEVKEKYTVLKSAPYFLEILDKRVNKGTGVKSLADVLGIKPEEIMAIGDQENDIAMIEYAGVGVAVDNAIPSVKEVANFVTKSNLEDGVAFAIEKYVLNEGGSHHHHHH
QTSPMTPDITGKPFVAADASNDYIKREVMIPMRDGVKLHTVIVLPKGAKNAPIVLTRTPYDASGRTERLASPHMKDLLSAGDDVFVEGGYIRVFQDVRGKYGSEGDYVMTRPLRGPLNPSEVDHATDAWDTIDWLVKNVSESNGKVGMIGSSYEGFTVVMALTNPHPALKVAVPESPMIDGWMGDDWFNYGAFRQVNFDYFTGQLSKRGKGAGIARQGHDDYSNFLQAGSAGDFAKAAGLEQLPWWHKLTEHAAYDAFWQEQALDKVMARTPLKVPTMWLQGLWDQEDMWGAIHSYAAMEPRDKRNTLNYLVMGPWRHSQVNYDGSALGALNFEGDTARQFRHDVLRPFFDQYLVDGAPKADTPPVFIYNTGENHWDRLKAWPRSCDKGCAATSKPLYLQAGGKLSFQPPVAGQAGFEEYVSDPAKPVPFVPRPVDFADRAMWTTWLVHDQRFVDGRPDVLTFVTEPLTEPLQIAGAPDVHLQASTSGSDSDWVVKLIDVYPEEMASNPKMGGYELPVSLAIFRGRYRESFSTPKPLTSNQPLAFQFGLPTANHTFQPGHRVMVQVQSSLFPLYDRNPQTYVPNIFFAKPGDYQKATQRVYVSPEQPSYISLPVR
MAHHHHHHMKNGKPMGGRETQKQKQKQKQVTLLTWINRANQPRQLTRKTKKAHEKQEERRIWLGAAKRLPQKMPQSMRCNYDIRTHINTHIHKHSHSHSHQLQTYTRTHHLSQKEMKRNEPQDIIRFHSNTQEPAGSTSSHVVTRLVITLLLLCTTQICPTSTEAVERGKQGALLFR
MSLDNSRTRPRVGHIQFLNCLPLYWGLARTGTLLDFELTKDTPEKLSEQLVRGDLDIGPVTLVEFLKNADDLVAFPDIAVGCDGPVMSCVIVSQVPLDRLDGARVALGSTSRTSVRLAQLLLSERFGVQPDYYTCPPDLSLMMQEADAAVLIGDAALRANMIDGPRYGLDVHDLGALWKEWTGLPFVFAVWAARRDYAEREPVITRKVHEAFLASRNLSLEEVEKVAEQAARWEAFDEDTLAKYFTTLDFRFGAPQLEAVTEFARRVGPTTGFPADVKVELLKPEGHHHHHH
